This assay deals with HLA-A*02:01 (Homo sapiens, UniProt P04439, D140Y/D185E/D98H/E176V/E277Q/G131W/G231S/I119V/I121R/I166T/I218V/L300P/L318F/N151K/N90K/P208A/P217A/Q86G/Q94H/R138H/R169H/T345S). The experiment in a line: MHC binding assay: UV-ligand exchange with β2m ELISA. The settings on record: binding of HLA-class I restricted peptides to HLA-A*02:01. The text has this:
Candidate peptides for T cell based therapies according to the present invention were further tested for their MHC binding capacity (affinity). The individual peptide-MHC complexes were produced by UV-ligand exchange, where a UV-sensitive peptide is cleaved upon UV-irradiation, and exchanged with the peptide of interest as analyzed. Only peptide candidates that can effectively bind and stabilize the peptide-receptive MHC molecules prevent dissociation of the MHC complexes. To determine the yield of the exchange reaction, an ELISA was performed based on the detection of the light chain (β2m) of stabilized MHC complexes. The assay was performed as generally described in Rodenko et al. (Rodenko et al., 2006).
96 well MAXISorp plates (NUNC) were coated over night with 2 ug/ml streptavidin in PBS at room temperature, washed 4× and blocked for 1 h at 37° C. in 2% BSA containing blocking buffer. Refolded HLA-A*02:01/MLA-001 monomers served as standards, covering the range of 15-500 ng/ml. Peptide-MHC monomers of the UV-exchange reaction were diluted 100-fold in blocking buffer. Samples were incubated for 1 h at 37° C., washed four times, incubated with 2 ug/ml HRP conjugated anti-β2m for 1 h at 37° C., washed again and detected with TMB solution that is stopped with […]. Absorption was measured at 450 nm. Candidate peptides that show a high exchange yield (preferably higher than 50%, most preferred higher than 75%) are generally preferred for a generation and production of antibodies or fragments thereof, and/or T cell receptors or fragments thereof, as they show sufficient avidity to the MHC molecules and prevent dissociation of the MHC complexes.
Background: ELISA stands for enzyme-linked immunosorbent assay.
As for “2 (PVCPPGGIQEV; listed as Homo sapiens) [compound 2]”, the “Peptide exchange (MHC class I binding score, peptide exchange yield)” value (“Peptide exchange” for short) is “+++ (>50 = +++)”.
For “4 (ILDINDNPPV; listed as Homo sapiens) [compound 4]”, the “Peptide exchange” value is recorded as “+++ (>50 = +++)”.
For the substance “5 (VCPPGGIQEV; listed as Homo sapiens) [compound 5]”, the “Peptide exchange” value was “+++ (>50 = +++)”.
“6 (ALYDAELSQM; listed as Homo sapiens) [compound 6]”: the “Peptide exchange” value is “+++ (>50 = +++)”.
For “7 (ALEEANADLEV; listed as Homo sapiens) [compound 7]” the value was “+++ (>50 = +++)”; for “9 (STASAITPSV; listed as Homo sapiens) [compound 9]”, “++ (>20% = ++)”; for “14 (RIMEGIPTV; listed as Homo sapiens) [compound 14]”, “++++ (>75% = ++++)”.
For the substance “15 (SMLNNIINL; listed as Homo sapiens) [compound 15]”, the “Peptide exchange” value is “+++ (>50 = +++)”.
Regarding “21 (FLHEPFSSV; listed as Homo sapiens) [compound 21]”, the “Peptide exchange” value was “++++ (>75% = ++++)”.
For “22 (KLPEPCPSTV; listed as Homo sapiens) [compound 22]” the value was “+++ (>50 = +++)”.
For “23 (SLPESGLLSV; listed as Homo sapiens) [compound 23]” the value was “+++ (>50 = +++)”; for “24 (LLIAINPQV; listed as Homo sapiens) [compound 24]”, “++++ (>75% = ++++)”.
As to “25 (SLCPPGGIQEV; listed as Homo sapiens) [compound 25]”, the “Peptide exchange” value is “++++ (>75% = ++++)”.
Turning to “27 (YLAEPQWAV; listed as Homo sapiens) [compound 27]”, the “Peptide exchange” value is “++++ (>75% = ++++)”.
In the case of “31 (HLATVKLLV; listed as Homo sapiens) [compound 31]”, the “Peptide exchange” value is “++++ (>75% = ++++)”.
The value for “32 (IQDAEGAIHEV; listed as Homo sapiens) [compound 32]” was “++++ (>75% = ++++)”; that for “33 (AIYEGVGWNV; listed as Homo sapiens) [compound 33]” was “++++ (>75% = ++++)”.
Regarding “34 (ALDTFSVQV; listed as Homo sapiens) [compound 34]”, the “Peptide exchange” value is given as “++++ (>75% = ++++)”.
“35 (ALVGDVILTV; listed as Homo sapiens) [compound 35]”: the “Peptide exchange” value is “++++ (>75% = ++++)”.
On to “36 (GLWSSIFSL; listed as Homo sapiens) [compound 36]”, for which the “Peptide exchange” value is on record as “++++ (>75% = ++++)”.
For “37 (ILLEDVFQL; listed as Homo sapiens) [compound 37]”, the “Peptide exchange” value is on record as “++++ (>75% = ++++)”.
In the case of “38 (KLLPGVQYV; listed as Homo sapiens) [compound 38]”, the “Peptide exchange” value was “++++ (>75% = ++++)”.
The value for “39 (LLPEDDTRDNV; listed as Homo sapiens) [compound 39]” was “+++ (>50 = +++)”; that for “40 (LLTPLNLQI; listed as Homo sapiens) [compound 40]” was “+++ (>50 = +++)”; that for “41 (RLNGEGVGQVNISV; listed as Homo sapiens) [compound 41]” was “++ (>20% = ++)”.
Turning to “42 (ALYTSGHLL; listed as Homo sapiens) [compound 42]”, the “Peptide exchange” value is “++++ (>75% = ++++)”.
In the case of “43 (AVLGGKLYV; listed as Homo sapiens) [compound 43]”, the “Peptide exchange” value was “++++ (>75% = ++++)”.
As to “44 (GLGDDSFPI; listed as Homo sapiens) [compound 44]”, the “Peptide exchange” value is given as “++++ (>75% = ++++)”.
For “45 (GLIEWLENTV; listed as Homo sapiens) [compound 45]”, the “Peptide exchange” value is “++++ (>75% = ++++)”.
As to “46 (GLISSIEAQL; listed as Homo sapiens) [compound 46]”, the “Peptide exchange” value is listed as “++++ (>75% = ++++)”.
The value for “47 (QLLEGELETL; listed as Homo sapiens) [compound 47]” was “+++ (>50 = +++)”.
For “48 (YLLDYPNNL; listed as Homo sapiens) [compound 48]” the value was “+++ (>50 = +++)”; for “49 (YLWEAHTNI; listed as Homo sapiens) [compound 49]”, “++++ (>75% = ++++)”.
For “50 (ALSNVVHKV; listed as Homo sapiens) [compound 50]” the value was “++++ (>75% = ++++)”; for “51 (FLIPSIIFA; listed as Homo sapiens) [compound 51]”, “++++ (>75% = ++++)”; for “52 (LLFTGLVSGV; listed as Homo sapiens) [compound 52]”, “+++ (>50 = +++)”.
In the case of “53 (RLVEVGGDVQL; listed as Homo sapiens) [compound 53]”, the “Peptide exchange” value was “++++ (>75% = ++++)”.
As for “54 (RLSGEGVGPV; listed as Homo sapiens) [compound 54]”, the “Peptide exchange” value is on record as “+++ (>50 = +++)”.
As to “55 (VLNVGVAEV; listed as Homo sapiens) [compound 55]”, the “Peptide exchange” value was “+++ (>50 = +++)”.
Turning to “56 (FLQLETEQV; listed as Homo sapiens) [compound 56]”, the “Peptide exchange” value was “++++ (>75% = ++++)”.
As for “57 (AILGFALSEA; listed as Homo sapiens) [compound 57]”, the “Peptide exchange” value was “++++ (>75% = ++++)”.
The value for “58 (SLSDIQPCL; listed as Homo sapiens) [compound 58]” was “+++ (>50 = +++)”; that for “59 (YLQNEVFGL; listed as Homo sapiens) [compound 59]” was “+++ (>50 = +++)”; that for “60 (SLGNFKDDLL; listed as Homo sapiens) [compound 60]” was “+++ (>50 = +++)”.
Consider “61 (FVAGYIAGV; listed as Homo sapiens) [compound 61]”, for which the “Peptide exchange” value is “++++ (>75% = ++++)”.
On to “62 (ILSSACYTV; listed as Homo sapiens) [compound 62]”, for which the “Peptide exchange” value was “++++ (>75% = ++++)”.
As for “63 (ALMDEINFMKM; listed as Homo sapiens) [compound 63]”, the “Peptide exchange” value is on record as “++++ (>75% = ++++)”.
As for “64 (KILESLFVSL; listed as Homo sapiens) [compound 64]”, the “Peptide exchange” value is given as “+++ (>50 = +++)”.
Regarding “65 (ALWGFFPVLL; listed as Homo sapiens) [compound 65]”, the “Peptide exchange” value is reported as “++++ (>75% = ++++)”.
Regarding “66 (TLLSEIAEL; listed as Homo sapiens) [compound 66]”, the “Peptide exchange” value is on record as “++++ (>75% = ++++)”.
For “67 (AQLNLIWQL; listed as Homo sapiens) [compound 67]” the value was “++++ (>75% = ++++)”.
For “68 (KILEMDDPRA; listed as Homo sapiens) [compound 68]” the value was “++ (>20% = ++)”; for “69 (YVMESMTYL; listed as Homo sapiens) [compound 69]”, “++++ (>75% = ++++)”; for “70 (FLFPAFLTA; listed as Homo sapiens) [compound 70]”, “++++ (>75% = ++++)”.
For the substance “71 (SLFPYVVLI; listed as Homo sapiens) [compound 71]”, the “Peptide exchange” value was “++++ (>75% = ++++)”.
For the substance “72 (SLDGNPLAV; listed as Homo sapiens) [compound 72]”, the “Peptide exchange” value was “++++ (>75% = ++++)”.
For the substance “73 (YIDPYKLLPL; listed as Homo sapiens) [compound 73]”, the “Peptide exchange” value was “+++ (>50 = +++)”.

For the origin of these results see patent US10688131B2, “Peptides and scaffolds for use in immunotherapy against head and neck squamous cell carcinoma and other cancers” (Immatics Biotechnologies GmbH, priority 2016, dated 2020).
